14 molecules from patent US20250339569A1 (3B PHARMACEUTICALS, published 2025) can be followed below.

B1: 3BP-4362 (peptide)
peptide: {DOTA-APAc″}-VYCE[dP]D[af3(ac-glu)]LTWSC-NH2
modifications: linker 3-12 via mXylylene; not fully specified
B2: 3BP-4364 (peptide)
peptide: {DOTA-APAc″}-VYCE[dP]D[af3(ac-asp)]LTWSC-NH2
modifications: linker 3-12 via mXylylene; not fully specified
B3: 3BP-4363 (peptide)
peptide: {DOTA-APAc″}-VYCE[dP]D[Af3(Ac-Asp)]LTWSC-NH2
modifications: linker 3-12 via mXylylene
B4: 3BP-3055 (peptide)
peptide: Ac-VYCEGDWATWQC-NH2
modifications: linker 3-12 via mXylylene
SMILES: CC(=O)N[C@H](C(=O)N[C@@H](Cc1ccc(O)cc1)C(=O)N[C@H]1CSCc2cccc(c2)CSC[C@@H](C(N)=O)NC(=O)[C@H](CCC(N)=O)NC(=O)[C@H](Cc2c[nH]c3ccccc23)NC(=O)[C@H]([C@@H](C)O)NC(=O)[C@H](C)NC(=O)[C@H](Cc2c[nH]c3ccccc23)NC(=O)[C@H](CC(=O)O)NC(=O)CNC(=O)[C@H](CCC(=O)O)NC1=O)C(C)C
B5: 3BP-3309 (peptide)
peptide: Ac-VYCE[Sar]DWL[dA]WQC-NH2
modifications: linker 3-12 via mXylylene
SMILES: CC(=O)N[C@H](C(=O)N[C@@H](Cc1ccc(O)cc1)C(=O)N[C@H]1CSCc2cccc(c2)CSC[C@@H](C(N)=O)NC(=O)[C@H](CCC(N)=O)NC(=O)[C@H](Cc2c[nH]c3ccccc23)NC(=O)[C@@H](C)NC(=O)[C@H](CC(C)C)NC(=O)[C@H](Cc2c[nH]c3ccccc23)NC(=O)[C@H](CC(=O)O)NC(=O)CN(C)C(=O)[C@H](CCC(=O)O)NC1=O)C(C)C
notes: also called Ac-Val-Tyr-[Cys(3MeBn)-Glu-Nmg-Asp-Trp-Leu-ala-Trp-Gln-Cys]-NH2
B6: 3BP-2836 (peptide)
peptide: Ac-MVYCEGDWLTWQC-NH2
modifications: linker 4-13 via mXylylene
SMILES: CSCC[C@H](NC(C)=O)C(=O)N[C@H](C(=O)N[C@@H](Cc1ccc(O)cc1)C(=O)N[C@H]1CSCc2cccc(c2)CSC[C@@H](C(N)=O)NC(=O)[C@H](CCC(N)=O)NC(=O)[C@H](Cc2c[nH]c3ccccc23)NC(=O)[C@H]([C@@H](C)O)NC(=O)[C@H](CC(C)C)NC(=O)[C@H](Cc2c[nH]c3ccccc23)NC(=O)[C@H](CC(=O)O)NC(=O)CNC(=O)[C@H](CCC(=O)O)NC1=O)C(C)C
B7: 3BP-3604 (peptide)
peptide: Ac-VY[dC][βAla]WLTWSC-NH2
modifications: linker 3-10 via mXylylene
SMILES: CC(=O)N[C@H](C(=O)N[C@@H](Cc1ccc(O)cc1)C(=O)N[C@@H]1CSCc2cccc(c2)CSC[C@@H](C(N)=O)NC(=O)[C@H](CO)NC(=O)[C@H](Cc2c[nH]c3ccccc23)NC(=O)[C@H]([C@@H](C)O)NC(=O)[C@H](CC(C)C)NC(=O)[C@H](Cc2c[nH]c3ccccc23)NC(=O)CCNC1=O)C(C)C
notes: also called Ac-Val-Tyr-[cys(3mebn)-Bal-Trp-Leu-Thr-Trp-Ser-Cys]-NH2
B8: 3BP-3044 (peptide)
peptide: Ac-V[dY]CEGDWLTWQC-NH2
modifications: linker 3-12 via mXylylene
SMILES: CC(=O)N[C@H](C(=O)N[C@H](Cc1ccc(O)cc1)C(=O)N[C@H]1CSCc2cccc(c2)CSC[C@@H](C(N)=O)NC(=O)[C@H](CCC(N)=O)NC(=O)[C@H](Cc2c[nH]c3ccccc23)NC(=O)[C@H]([C@@H](C)O)NC(=O)[C@H](CC(C)C)NC(=O)[C@H](Cc2c[nH]c3ccccc23)NC(=O)[C@H](CC(=O)O)NC(=O)CNC(=O)[C@H](CCC(=O)O)NC1=O)C(C)C
B9: 3BP-3061 (peptide)
peptide: Ac-VYCEG[Aib]WLTWQC-NH2
modifications: linker 3-12 via mXylylene
SMILES: CC(=O)N[C@H](C(=O)N[C@@H](Cc1ccc(O)cc1)C(=O)N[C@H]1CSCc2cccc(c2)CSC[C@@H](C(N)=O)NC(=O)[C@H](CCC(N)=O)NC(=O)[C@H](Cc2c[nH]c3ccccc23)NC(=O)[C@H]([C@@H](C)O)NC(=O)[C@H](CC(C)C)NC(=O)[C@H](Cc2c[nH]c3ccccc23)NC(=O)C(C)(C)NC(=O)CNC(=O)[C@H](CCC(=O)O)NC1=O)C(C)C
notes: also called Ac-Val-Tyr-[Cys(3MeBn)-Glu-Gly-Aib-Trp-Leu-Thr-Trp-Gln-Cys]-NH2
B10: 3BP-3047 (peptide)
peptide: Ac-VYCEG[dD]WLTWQC-NH2
modifications: linker 3-12 via mXylylene
SMILES: CC(=O)N[C@H](C(=O)N[C@@H](Cc1ccc(O)cc1)C(=O)N[C@H]1CSCc2cccc(c2)CSC[C@@H](C(N)=O)NC(=O)[C@H](CCC(N)=O)NC(=O)[C@H](Cc2c[nH]c3ccccc23)NC(=O)[C@H]([C@@H](C)O)NC(=O)[C@H](CC(C)C)NC(=O)[C@H](Cc2c[nH]c3ccccc23)NC(=O)[C@@H](CC(=O)O)NC(=O)CNC(=O)[C@H](CCC(=O)O)NC1=O)C(C)C
notes: also called Ac-Val-Tyr-[Cys(3MeBn)-Glu-Gly-asp-Trp-Leu-Thr-Trp-Gln-Cys]-NH2
B11: 3BP-3045 (peptide)
peptide: Ac-VYC[dE]GDWLTWQC-NH2
modifications: linker 3-12 via mXylylene
SMILES: CC(=O)N[C@H](C(=O)N[C@@H](Cc1ccc(O)cc1)C(=O)N[C@H]1CSCc2cccc(c2)CSC[C@@H](C(N)=O)NC(=O)[C@H](CCC(N)=O)NC(=O)[C@H](Cc2c[nH]c3ccccc23)NC(=O)[C@H]([C@@H](C)O)NC(=O)[C@H](CC(C)C)NC(=O)[C@H](Cc2c[nH]c3ccccc23)NC(=O)[C@H](CC(=O)O)NC(=O)CNC(=O)[C@@H](CCC(=O)O)NC1=O)C(C)C
B12: 3BP-3325 (peptide)
peptide: Ac-CE[Sar]DWLTWQC-NH2
modifications: linker 1-10 via mXylylene
SMILES: CC(=O)N[C@H]1CSCc2cccc(c2)CSC[C@@H](C(N)=O)NC(=O)[C@H](CCC(N)=O)NC(=O)[C@H](Cc2c[nH]c3ccccc23)NC(=O)[C@H]([C@@H](C)O)NC(=O)[C@H](CC(C)C)NC(=O)[C@H](Cc2c[nH]c3ccccc23)NC(=O)[C@H](CC(=O)O)NC(=O)CN(C)C(=O)[C@H](CCC(=O)O)NC1=O
notes: also called Ac-[Cys(3MeBn)-Glu-Nmg-Asp-Trp-Leu-Thr-Trp-Gln-Cys]-NH2
B13: 3BP-3049 (peptide)
peptide: Ac-VYCEGDWL[dT]WQC-NH2
modifications: linker 3-12 via mXylylene
SMILES: CC(=O)N[C@H](C(=O)N[C@@H](Cc1ccc(O)cc1)C(=O)N[C@H]1CSCc2cccc(c2)CSC[C@@H](C(N)=O)NC(=O)[C@H](CCC(N)=O)NC(=O)[C@H](Cc2c[nH]c3ccccc23)NC(=O)[C@@H]([C@H](C)O)NC(=O)[C@H](CC(C)C)NC(=O)[C@H](Cc2c[nH]c3ccccc23)NC(=O)[C@H](CC(=O)O)NC(=O)CNC(=O)[C@H](CCC(=O)O)NC1=O)C(C)C
notes: also called Ac-Val-Tyr-[Cys(3MeBn)-Glu-Gly-Asp-Trp-Leu-thr-Trp-Gln-Cys]-NH2
B14: 3BP-3048 (peptide)
peptide: Ac-VYCEGDW[dL]TWQC-NH2
modifications: linker 3-12 via mXylylene
SMILES: CC(=O)N[C@H](C(=O)N[C@@H](Cc1ccc(O)cc1)C(=O)N[C@H]1CSCc2cccc(c2)CSC[C@@H](C(N)=O)NC(=O)[C@H](CCC(N)=O)NC(=O)[C@H](Cc2c[nH]c3ccccc23)NC(=O)[C@H]([C@@H](C)O)NC(=O)[C@@H](CC(C)C)NC(=O)[C@H](Cc2c[nH]c3ccccc23)NC(=O)[C@H](CC(=O)O)NC(=O)CNC(=O)[C@H](CCC(=O)O)NC1=O)C(C)C
notes: also called Ac-Val-Tyr-[Cys(3MeBn)-Glu-Gly-Asp-Trp-leu-Thr-Trp-Gln-Cys]-NH2

Starred links: 1 amine or outer side, 2 acyl side, 3 side chain; linkers in the order of their positions; H or OH if unused. Positions of bridges follow the written chain, without caps; N, C: chain ends. Non-standard residues stand in square brackets, D forms with d. Primed or numbered codes have the meaning given here. *: point of attachment. af3(ac-glu) = lower case: 3-amino-D-phenylalanine, ring amine acylated with N-acetyl-D-glutamic acid, CC(=O)N[C@H](CCC(=O)[*:3])C(=O)Nc1cccc(C[C@@H](N[*:1])C(=O)[*:2])c1; af3(ac-asp) = lower case: 3-amino-D-phenylalanine, ring amine acylated with N-acetyl-D-aspartic acid, CC(=O)N[C@H](CC(=O)[*:3])C(=O)Nc1cccc(C[C@@H](N[*:1])C(=O)[*:2])c1; Af3(Ac-Asp) = 3-aminophenylalanine acylated on the ring amine with N-acetyl-aspartic acid; APAc″ = 2-(4-(amino)piperidin-1-yl)acetic acid, NC1CCN(CC(=O)*)CC1; DOTA = O=C(O)CN1CCN(CC(=O)O)CCN(CC(=O)*)CCN(CC(=O)O)CC1; mXylylene = c1cc(C[*:1])cc(C[*:2])c1; Aib = CC(C)(N)C(=O)O; βAla = NCCC(=O)O; Sar = CNCC(=O)O

The target in one assay is human carbonic anhydrase 9 (CAIX) (human, UniProt Q16790 38-459). Description: FACS competition on HT-29 cells, competitor tracer 3BP-4149; category B = pIC50 7.1-8.0. The protocol: (§1) CAIX-expressing human HT-29 colorectal cancer cells (DSMZ, RRID: CVCL_0320) were cultured in McCoys's 5A modified medium (Biochrom, #F1015) including 10% fetal calf serum (FCS), 2 mM L-glutamine, 100 U/ml penicillin and 100 μg/mL streptomycin. Cells were detached with Accutase (Biolegend, #423201) and washed in FACS buffer (PBS including 1% FCS). Cells were diluted in FACS buffer to a final concentration of 500.000 cells per ml. 200 μL of the cell suspension were transferred to a u-shaped non-binding 96-well plate (Greiner) and cells were washed in ice-cold FACS buffer.
(§2) When biotinylated compounds were used an additional incubation step with 1 μg/mL APC-Streptavidin (Miltenyi; #130-106-791) in 50 μL FACS buffer for 30 minutes on ice was performed.
(§3) Cells were washed twice with ice-cold FACS buffer and analyzed in an Attune NxT flow cytometer (Thermo Fisher). Median fluorescence intensities (MFI) of the APC/Cy5-channel were calculated by Attune NxT software.
The molecule B1 registered a pIC50 of 7.1 to 8 pic50.
As for B2, the pIC50 fell in the range of 7.1 to 8 pic50.
B3: the pIC50 lay in the range of 7.1 to 8 pic50.

For another assay the target is unchanged. Description: FACS competition on HT-29 cells against tracer 3BP-2776; pIC50 category C = pIC50 6.1-7.0. The protocol: as §1, §2, §3
Regarding B4, the pIC50 lay in the range of 6.1 to 7 pic50.
On the same count and under the same terms, the figure for B5 is 6.1 to 7 pic50.
With B6, the pIC50 was 6.1 to 7 pic50.
Molecule B7 yielded a pIC50 of 6.1 to 7 pic50.
The same measure, in the same setting: the figure for B8 is 6.1 to 7 pic50.
On the same count and under the same terms, the result for B9 reads 6.1 to 7 pic50.
The same measure, in the same setting: the figure for B10 is 6.1 to 7 pic50; for B11 it is 6.1 to 7 pic50.
B12 registered a pIC50 of 6.1 to 7 pic50.
Take B13: the pIC50 was 6.1 to 7 pic50.
On the same count and under the same terms, the figure for B14 is 6.1 to 7 pic50.
